Data: US20200157248A1

How the values were obtained:
Experiment in all cases: ELISA, VHH on coated antibody
Fwt = target: Fwt
mutC4/Cmut4 = target: mutC4/Cmut4
mutF4/Fmut4 = target: mutF4/Fmut4

ELISA OD (Fwt) [OD]	ELISA OD (mutC4/Cmut4) [OD]	ELISA OD (mutF4/Fmut4) [OD]	Binder
0.114	0.068	0.153	VHH clone 8GO9 (VHH) VHH: QVQLVESGGGLVQAGGSLRLSCAASGRTFSRYGMSWFRQAPGKEREFVATISRGGSSTNYADSTKGRFTVSRDNAKNTVVLQMNSLKPEDTAVYYCAADTNWPVGAYEYWGQGTQVTVSS
0.073	0.054	0.123	VHH clone 8G11 (VHH) VHH: EVQLVESGGGLVQAGGSLRLSCAASGRTFDIYTMGWFRQVPGKEREFVADIGRAGGTTHYADSVKGRFAISRDNANDAVHLQMNSLKPEDTAVYYCATKVVPRAGRRLLDYDYWGQGTQVTVSS
0.063	0.2	0.159	VHH clone 8G12 (VHH) VHH: EVQLVESGGGLVRAGGSLRLSCAASGSIFGTTNMGWYRQAPGTQRDLVATINNGGITNYADSVKGRFTISTDYTKNTVYLQMDRLKPEDTAVYYCNAEYHFRPPSWGQGTQVTVSS
0.069	0.068	0.221	VHH clone 8B03 (VHH) VHH: EVQLVESGGGLVQPGGSLRLSCRASGAIFSINHMGWYRQAPGKQRELVATITSGGSTNYADSVKGRFTISRDNAKNTVYLQMNSLKPEDTAVYSCNLDWTTGWGSRRDYWGQGTQVTVSS
0.079	0.068	0.128	VHH clone 8G1 (VHH) VHH: QVQLVESGGGLVQPGGSLRLSCRASGAIFSINHMGWYRQAPGKQRELVATITSGGSTNYADSVKGRFTISRDNAKNTVYLQMNSLKPEDTAVYSCNLDWTTGWGSRRDYWGQGTQVTVSS
